Experimental data reported in publication PMC9943658.

Legend:
His-T7-hnRNP C1 ΔACIDIC = His-T7-hnRNP C1 ΔACIDIC (UniProt P07910); experiment: SEC
His-T7-hnRNP C1 ΔRRM = His-T7-hnRNP C1 ΔRRM (UniProt P07910); experiment: SEC

Substance | stoichiometry N (His-T7-hnRNP C1 ΔACIDIC) | stoichiometry N (His-T7-hnRNP C1 ΔRRM)
His-T7-hnRNP C1 ΔACIDIC (from UniProt P07910-2 1-293) (natural protein) | 2 | 
His-T7-hnRNP C1 ΔRRM (from UniProt P07910-2 1-293) (natural protein) |  | 4
